In the nanobody polyreactivity screen of Harvey et al. (2022):

Experiment: yeast display, Sf9 membrane polyspecificity reagent, FACS + sequencing; frameworks hold sequencing errors
Procedure, shortened: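 Nanobodies from a synthetic yeast display library (Saccharomyces cerevisiae BJ5465), induced 36–48 hours with galactose, were stained 1 hour at 4 °C with 10% biotinylated, detergent-solubilized Sf9 membrane reagent, enriched on streptavidin microbeads, then FACS-sorted. Anti-HA (expression) and streptavidin (reagent binding) fluorescence set low and high (top ~1%) gates. Polyreactivity labels come from the gate of origin. Genes were colony-PCR amplified, MiSeq 2 × 250 sequenced and filtered by CDR length.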

Sequence	polyreactivity (PSR sort gate)
QVQLQESGGGLVQAGGSLRLSCAASGTISPLPAMGWYRQAPGKERDFVAGIDTGAITNYADSVKGRFTISRDNAKHTVYLQMNSLKPEETAVYYCADFPAAYDYYERYYTYWGQGTQVTVSS	low polyreactivity
QVQLVESVGGLDQAGGSLRLSCAASGSIFVGYAMGWYRQAPGKERELVAAITRSGVSTYYADSVKGRFTISRDNAKNTVYLQMNSLKPEDTAVYYCAADPTYRYWRVPWYEYDYWGQGTQVTVSS	low polyreactivity
QVQLVESGGGLVQAGGSLRLSCAASGRIFAVNAMGWYRQAPGKERELVATINSGGNTNYADSVKGRFTISRDNAKNTVYLQMNSLKPVDTAVYYCAARAFSAWLEMDYWGQGTQVTVSS	low polyreactivity
QVQLVESGGGLVQAGGSLRLSCAASGLTFPYYVMGWYRQAPGKERELVAAISSSGGSTYYADSVKGRFTISRDNAKNTVYLQMNSLKPEDTAVYYCNAPYVFSAGFDYWGQGTQVTVSS	low polyreactivity
QVQLVESGGGLVQAGGSLRLSCAASGFTFYGYAMGWYRQAPGKERELVAAINSGAITNYADSVKGRFTISRDNAKNTVYLQMNSLKPEDTAVYYCAASYRRLTGVGADEYWGQGTQVTVSS	high polyreactivity
QVQLVESGGGLVQAGGSLRLSCAASGFTFDFYAMGWYRQAPGKERELVASIRWSGGSTYYADSVKGRFTISRDNAKNTVYLQMNSLKPEDTAVYYCAKSIASAAYDSWGQGTQVTVSS	low polyreactivity
QVQLVESGGGLVQAGGSLRLSCAASGSIFAYNAMGWYRQAPGKEREFVAAISLSGGRTYYADSVKGRFTISRDNAKNTVYLQMNSLKPEDTAVYYCATDGIRLTRHRDYDYWGQGTQVTVSS	low polyreactivity
QVQRVESGGGLVQAGGSLRLSCAASGSTFGNAMGWYRQAPGKERELVAAISSRGDRTYYADSVQGRFTISRDNAKNTVYLQMNSLKPEDTAVYYCAKDGYPNKYDYWGQGTQVTVSS	high polyreactivity
QVQLVESGGGLVQAGGSIRLSCAASGSTFYSYAMGWYRQATGKERELVAAISSGGSTNYADSVKGRFTISRDNAKNTVYLQMNSLKPEDTAVYYCAVDYPVIVYQRGYWGQGTQVTVSS	low polyreactivity
QVQLVESGGGLVQAGGSLRLSCAASGYTFRYNAMGWYRQAPGKERELVATISRGGNTNYADSVKGRFTISRDNAKNPVYLQMISLKAEDTAVYYCAKVWRTFPYYSWGQGTQVTVSS	high polyreactivity
QVQLVESGGGLVQAGGSLRLSCAASGFNYYTMGWYRQAPGKERELVAAINYSGGRTYYADSVKGRFTISRDNAKNTVYLQMNSLKPEDTAVYYCNTARSPYDHRPERSYDYWGLGTQVTVSS	high polyreactivity
QVKLVESGGGLVQAGGSLRLSCAASGRTVTRNTMGWYRQAPGKERELVAAISRSGGGTYYADSVKGRFTISRDNAKNTVYLQMNSLKPEDTAVYYCAAVPQNYRNFDGYNYWGQGTQVTVSS	high polyreactivity
QVQLVESGGGLVQAGGSLRLSCAASGSTFGAYAMGWSRKAPGKERELVAAISRRGGSTYYADSVKGRFTISRDNAKNTVYLQMNSLKPEDTAVYYCNAVGTRVDGEHYYWGQGTQVTVSS	high polyreactivity
QVQLVESGGGLVQAGGSLRLSCAASGRTFSPYVMGWYRQAPGKETELVATITGGGGSTYYADSVKGRFTISRDNAKNTVFLQMNSLKPEDTAVYYCARGYRYYVYRMGYWGQGTQVTVSS	high polyreactivity
QVELVVSGGGLVQPGGSLRLSCAASGSTFFNNGMGWYRQSPGKERELVATITKRGGNTYYADSVKGRFTISRDNAKNTVYLQMNSLKPEDTAVYYCAALRYKLPLGYWGQGTQVTVSS	high polyreactivity
QVQLVESGGGLVQAGGSLRLSCAASGFTFGYYAMGWYRQAPGKERELVAAITWSGGRTYYADSVKGRFTISRDNAKNTVYLQMNSLKPEDTAVYYGAVETLWQGSEYWGQGTQVTVSS	low polyreactivity

Sequence	polyreactivity (PSR sort gate)
QVQLVESGGGLVQAGGSLRLSCAASGFIFDPYAMGWYRQAPGTERELVASINTRGDRTSYADSVKGRFTISRDNAKNTVYLQMNSLKPEDTAVYYCNADAVDQVGPDDDYWGQGTQVTVSS	low polyreactivity
QVQLVESRGVLVQAGGSLRLSCAGSGSTILRYALGWYRQAPGKERELVAAINWSGGGTSYADSVKGRFTISRDNAKNTVYFQMNSLKPEDTAVYYCAAYFRYSNYWSEYWGQGTQVTVSS	high polyreactivity
QVQLVETGGGLVQAGGSLSLSCAASGRTFGRYAMGWYRQAPGKERELVAAITWSGGSTYYADSVKGRFTISRDNAKNTVYLQMNSLKPEDTAVYYCAASGYPIYHDDYWGQGTQVTVSS	low polyreactivity
QVQLVESGGGLVQAGGSLRLSCAASGFTVTRYAMGWYRQAPGKERELVAAITRSGSSTSYADSVKGRFTISRDNAKNTVSLQINSLKPEDTAVYYCAARLHSPRYRYDYWGQGTQVTVSS	high polyreactivity
QVQLVESGGGLVQAGGSLRLSCAASGFTFWSYAMGWYRQAPGKERELVAAISSSGDSTYYADSVKGRFTISRDNAKNTVYLQMNSLKPEDTAVYYCAAEYQYLSVEVTDIWYLTKYDYWGQGTQVTVSS	low polyreactivity
QVQLVESGGGLVQAGGSLRLSCAASGSTFRVNAMAWYRHAPGKERELVADITNGGSTYYADSVKGRFTISRDNAKNTVYLQMNSLKPEDTAVYYCNARPSYLRFKWYSYDYWGQGTQVTVSS	high polyreactivity
QVQLVESGGGLVQAGGSLRLSCAASGIIFTTYVMGWYRHAPGTESELVAAISRGGRTYYADSVKGRFTLSRDNAKHTVYLQMNSLKPEDTAVYYCARVAYKGYGEDDYWGQGTQVTVSS	high polyreactivity
QVQLVESGGGLVQAGGSLRLSCAASGFIFYKYAMGWYRQAPGKEREFVAAITWSGGNTYYADSVKGRFTISRDNAKNTVYLQMNSLKPEDTAVYYCAARDSKWGQGTQVTVSS	low polyreactivity
QVQLVESGGGLVQAGGSLRLSCAASGITFHGNTMGWYRQAPGKERELVAGISTSGSITYYADSVKGRFTISRDNAKKTVYLQMNSLKPEDTAVYYCAAVSHATQIAERGYWGQGTQVTVSS	low polyreactivity
QVQLVESGRGLVQAGGSLRLSCADSGYIFWYYAMGWYRQAPGKERELVATITVSAGTTYFADSVKGRFTISRDNAKNTVYLQMNSLKPEDTAVYYCNKRSALSFVYDFDYWGQGTQVTVSS	low polyreactivity
QVQLVESGGGLVQAGGSLRLSCAASGSTFPYNAMGCDRQAAGKERELVAAISFSGGITTYADSVKGRFTISRDNAKNTVYLQMNSLKPEDTAVYYCNVAYTLHFGYWGQGTQVTVSS	low polyreactivity
QVQLVESGGGLVQAGGSLRLSCAASGSTFAYNAMGWYRQAPGKERELVAAISKGGGSTYYADSVKGRFTISRDNAKNTVYLQMNSLKPEDTAVYYCNAYYRSPRGYNYWGQGTQVTVSS	high polyreactivity
QVQLVESGGGLVQAGGSLRLSCAASGNTFYHYAMGWYRQAPVKERELVAGIRYNGGSTYYADSVKGRFTISRDNAKNTVYLQMISLKPEDTAVYYCATRGRTAWYTMDYWGQGTQVTVSS	high polyreactivity
QVQLLESGGGLVQAGGTLRLSCAASGSTFRYNAMGWYRQAPGKERELVAAITSGGRTNYADSVKGRFTISRDNAKYTFYLQMNSLKPEDTGVYYCAARRYCRNWHNVYWGQGTQVTVSS	high polyreactivity
QVQLVESGGGLVQAGCSLRLSCAASGSTVYYKAMGWYREAPGKERELVAAITSGGRTKYADSVKGRFTISRDNAKNTVYLQMNSLKPEDTAVYYCNTYNRRSGTLPKPYDYWGQGTQVTVSS	high polyreactivity
QVQLVESGGGLVQAGGSLRLSCAASGSIIGFYVMGWYRQAPGKERELVAGISDSGGRTYYADSVKGRFTISRDNAKNTVYLQMNSLKPEDTAVYYCAAEAYKHGVWDYDYWGQGTQVTVSS	low polyreactivity
